Sequences and labels used below:
B6: human Shrm2 SD2 domain (1427–1610), untagged (domain or fragment, UniProt Q13796 1427-1610, looked up)
chain: SDLDHDLSVKKQELIESISRKLQVLREARESLLEDVQANTVLGAEVEAIVKGVCKPSEFDKFRMFIGDLDKVVNLLLSLSGRLARVENALNNLDDGASPGDRQSLLEKQRVLIQQHEDAKELKENLDRRERIVFDILANYLSEESLADYEHFVKMKSALIIEQRELEDKIHLGEEQLKCLLDSL
notes: Shroom2 (Shrm2), human, Shrm Domain 2 (SD2), residues 1427-1610; Cloned into pET151/D-TOPO (His6 removable with TEV); called untagged in the pull-down; also called Shrm SD2; human Shroom2 SD2; source: E. coli BL21(DE3) Codon+(RILP), purified; not shown: His6, N-terminal, cleaved
B7: human Rock1 707–946, 900ESE902 to alanine (domain or fragment, UniProt Q13464 707-946, looked up)
chain: EAKSVAMCEMEKKLKEEREAREKAENRVVQIEKQCSMLDVDLKQSQQKLEHLTGNKERMEDEVKNLTLQLEQESNKRLLLQNELKTQAFEADNLKGLEKQMKQEINTLLEAKRLLEFELAQLTKQYRGNEGQMRELQDQLEAEQYFSTLYKTQVKELKEEIEEKNRENLKKIQELQNEKETLATQLDLAETKAAAAQLARGLLEEQYFELTQESKKAASRNRQEITDKDHTVSRLEEANS
notes: source: E. coli BL21(DE3) codon plus (RIPL), purified; not shown: His6, N-terminal, cleaved
B8: human Shrm2 SD2 domain (1427–1610), N-terminally labelled with Oregon Green 488 (domain or fragment, UniProt Q13796 1427-1610, looked up)
chain: SDLDHDLSVKKQELIESISRKLQVLREARESLLEDVQANTVLGAEVEAIVKGVCKPSEFDKFRMFIGDLDKVVNLLLSLSGRLARVENALNNLDDGASPGDRQSLLEKQRVLIQQHEDAKELKENLDRRERIVFDILANYLSEESLADYEHFVKMKSALIIEQRELEDKIHLGEEQLKCLLDSL
modifications: Oregon Green 488 (succinimidyl ester) on the N-terminus, labelling essentially 1:1
notes: Shroom2 (Shrm2), human, Shrm Domain 2 (SD2), residues 1427-1610; Same construct as m1, with the fluorophore; also called Shrm2 SD2-Oregon Green 488; Oregon-Green labeled human Shrm2 SD2 domain; source: E. coli BL21(DE3) Codon+(RILP), purified, then labelled

Data set [1] concerns the target B6. Kind of data set: pull-down; 25 µg purified His-tagged Rock1 fragment on nickel beads, 2x molar excess of untagged Shrm2 SD2, 10 min room temperature; 2% glycerol, 100 mM NaCl, 7 mM imidazole, 1 mM β-mercaptoethanol, 20 mM Tris pH 8.0; SDS-PAGE, Coomassie. The following applies: both partners purified.
For data set [2], the target named is T1, human Shrm2 SD2 domain (1427–1610), N-terminally labelled with Oregon Green 488 (human, UniProt Q13796 1427-1610, Oregon Green 488 (succinimidyl ester) on the N-terminus, labelling essentially 1:1).
T1 chain: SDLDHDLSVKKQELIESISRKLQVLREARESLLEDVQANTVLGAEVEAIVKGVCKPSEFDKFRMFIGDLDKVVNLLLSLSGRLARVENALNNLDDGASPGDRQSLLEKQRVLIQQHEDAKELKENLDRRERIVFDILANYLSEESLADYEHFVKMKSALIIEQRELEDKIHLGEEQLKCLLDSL
Description: FP.

Data set [3] concerns the molecule itself. Description: cross-linking; 0.002% glutaraldehyde, 25 min, 26 µM protein; 25 mM HEPES pH 7.5, 8% glycerol, 500 mM NaCl, 5 mM β-ME; SDS-PAGE, Coomassie.
Data set [4] addresses B8. Kind of data set: fluorescence polarisation; fluorescence anisotropy; 20 nM (legends: 50 nM) N-terminally Oregon Green 488-labelled Shrm2 SD2, increasing concentrations of Rock1 SBD; 20 mM Hepes pH 7.4, 100 mM NaCl, 5% glycerol; single binding model. The settings on record: both partners purified. For orientation: Polarisation of emitted light reports the rotation of a fluorescent probe.

Data set [5] has as its target T2, human Rock1 707–946, SBD^SER variant (human, UniProt Q13464 707-946, triple alanine mutation, 884EKE886).
T2 construct: source: E. coli BL21(DE3) codon plus (RIPL), purified; not shown: His6, N-terminal, cleaved
T2 sequence (looked up): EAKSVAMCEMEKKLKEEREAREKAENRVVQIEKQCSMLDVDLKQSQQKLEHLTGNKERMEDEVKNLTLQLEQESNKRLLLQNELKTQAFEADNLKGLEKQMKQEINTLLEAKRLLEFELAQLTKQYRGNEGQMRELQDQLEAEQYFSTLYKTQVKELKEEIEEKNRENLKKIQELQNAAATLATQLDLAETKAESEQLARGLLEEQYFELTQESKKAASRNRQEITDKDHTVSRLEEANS
Description: native gel or EMSA; 10 µM Rock1 707–946 (wild type or mutant) mixed with 10 µM human Shrm2 SD2, 20 min room temperature; 12% native PAGE at 4°C, Coomassie. The following applies: both partners purified.

Data set [6] deals with T3, human Rock1 707–946, 865EE866 to alanine (human, UniProt Q13464 707-946, 865EE866 alanine substitutions).
T3 construct: source: E. coli BL21(DE3) codon plus (RIPL), purified; not shown: His6, N-terminal, cleaved
T3 sequence (looked up): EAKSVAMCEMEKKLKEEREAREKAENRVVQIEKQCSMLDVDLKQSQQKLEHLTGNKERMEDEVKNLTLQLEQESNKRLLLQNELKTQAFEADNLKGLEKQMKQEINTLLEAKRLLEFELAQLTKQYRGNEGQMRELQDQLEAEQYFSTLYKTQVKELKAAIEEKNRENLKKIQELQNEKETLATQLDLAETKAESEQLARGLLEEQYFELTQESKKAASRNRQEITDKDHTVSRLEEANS
The description is as above. The settings on record: both partners purified.

For data set [7], the target named is B7. The data set is described as above. The settings on record: both partners purified.
The target of data set [8] is T4, human Rock1 707–946, wild type (human, UniProt Q13464 707-946).
T4 construct: also called wild-type Rock1 SBD; not shown: His6, N-terminal, cleaved
T4 sequence (looked up): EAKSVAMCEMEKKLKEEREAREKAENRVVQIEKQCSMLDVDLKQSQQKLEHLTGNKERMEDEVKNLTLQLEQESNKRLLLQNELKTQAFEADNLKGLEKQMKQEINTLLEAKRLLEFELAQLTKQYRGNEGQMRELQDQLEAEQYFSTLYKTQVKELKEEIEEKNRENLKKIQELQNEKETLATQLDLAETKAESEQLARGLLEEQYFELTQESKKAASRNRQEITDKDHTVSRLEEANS
The data set is described as above. The settings on record: both partners purified.

Data set [9] deals with T5, His6-tagged human Rock1 707–913 (human, UniProt Q13464 707-913).
T5 construct: source: E. coli BL21(DE3) codon plus (RIPL), purified; not shown: His6, N-terminal, kept
T5 sequence (looked up): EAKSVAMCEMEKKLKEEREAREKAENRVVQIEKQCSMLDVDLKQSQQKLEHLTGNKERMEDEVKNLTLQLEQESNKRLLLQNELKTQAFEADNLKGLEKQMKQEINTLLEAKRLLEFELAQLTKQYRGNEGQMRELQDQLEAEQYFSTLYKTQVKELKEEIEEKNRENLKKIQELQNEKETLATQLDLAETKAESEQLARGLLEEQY
Description: pull-down; 25 µg purified His-tagged Rock1 fragment on nickel beads, 2x molar excess of untagged Shrm2 SD2, 10 min room temperature; 2% glycerol, 100 mM NaCl, 7 mM imidazole, 1 mM β-mercaptoethanol, 20 mM Tris pH 8.0; SDS-PAGE, Coomassie. The following applies: both partners purified.

Data set [10] deals with human Rock1 707–946, 900ESE902 to alanine (human, UniProt Q13464 707-946, 900ESE902 alanine substitutions). Kind of data set: FP.
In data set [11] the target is T4, human Rock1 707–946, wild type. Description: fluorescence polarisation; fluorescence anisotropy; 20 nM (legends: 50 nM) N-terminally Oregon Green 488-labelled Shrm2 SD2, increasing concentrations of Rock1 SBD; 20 mM Hepes pH 7.4, 100 mM NaCl, 5% glycerol; single binding model. The following applies: both partners purified.

B1: His6-tagged human Rock1 772–913 (domain or fragment, UniProt Q13464 772-913, looked up)
chain: LTLQLEQESNKRLLLQNELKTQAFEADNLKGLEKQMKQEINTLLEAKRLLEFELAQLTKQYRGNEGQMRELQDQLEAEQYFSTLYKTQVKELKEEIEEKNRENLKKIQELQNEKETLATQLDLAETKAESEQLARGLLEEQY
notes: source: E. coli BL21(DE3) codon plus (RIPL), purified; not shown: His6, N-terminal, kept
For B1, the binding result in [1] is listed as “binds”.

B2: human Rock1 SBD (834–913), wild type (domain or fragment, UniProt Q13464 834-913, looked up)
chain: GNEGQMRELQDQLEAEQYFSTLYKTQVKELKEEIEEKNRENLKKIQELQNEKETLATQLDLAETKAESEQLARGLLEEQY
notes: PDB 4L2W holds the same limits with the SER mutation 884EKE886 to AAA; also called WT SBD; not shown: His6, N-terminal, cleaved
For orientation: Kd means the concentration at which binding is half-saturated. In general, stoichiometry N refers to a count of units in the complex or per binding partner. On to B2, for which binding in data set [2] was characterised by a dissociation constant (Kd) of 5.3 µM. For the same molecule, the “stoichiometry N” value in [3] is 2. For the same molecule, in data set [4], the binding result was “binds”.

B3: human Rock1 SBD (834–913) with the surface entropy reduction mutation (SBD^SER) (domain or fragment, UniProt Q13464 834-913, looked up)
chain: GNEGQMRELQDQLEAEQYFSTLYKTQVKELKEEIEEKNRENLKKIQELQNAAATLATQLDLAETKAESEQLARGLLEEQY
notes: A selenomethionine form was used for phasing only; also called Rock1 SBD^SER; SER mutant; not shown: His6, N-terminal, cleaved
B3: in data set [3], the “stoichiometry N” value was 2.

B4: His6-tagged human Rock1 834–913 (domain or fragment, UniProt Q13464 834-913, looked up)
chain: GNEGQMRELQDQLEAEQYFSTLYKTQVKELKEEIEEKNRENLKKIQELQNEKETLATQLDLAETKAESEQLARGLLEEQY
notes: PDB 4L2W holds the same limits with the SER mutation 884EKE886 to AAA; source: E. coli BL21(DE3) codon plus (RIPL), purified; not shown: His6, N-terminal, kept
As to B4, the binding result in data set [1] is given as “binds”.

B5: human Rock1 707–946, wild type (domain or fragment)
chain: EAKSVAMCEMEKKLKEEREAREKAENRVVQIEKQCSMLDVDLKQSQQKLEHLTGNKERMEDEVKNLTLQLEQESNKRLLLQNELKTQAFEADNLKGLEKQMKQEINTLLEAKRLLEFELAQLTKQYRGNEGQMRELQDQLEAEQYFSTLYKTQVKELKEEIEEKNRENLKKIQELQNEKETLATQLDLAETKAESEQLARGLLEEQYFELTQESKKAASRNRQEITDKDHTVSRLEEANS
Molecule B5 came in with a dissociation constant Kd in [2] of 1.7 µM.

Take B6: the binding result in [5], in data set [6], in data set [7], in data set [8] and in data set [9] was “binds” each time.

B7: the “fold decrease in binding affinity against wild type” value in data set [4] is around 5.5 fold.

For B8, binding in data set [10] was put at a Kd of 9.3 µM. In addition, the binding result in data set [11] was “binds”.

(Values after paper PMC3857177 (PLoS ONE, 2013).)
